Test results as given in patent US11491212.

Experiments:
[1] = molecular target: plasma purified human AT-III (antithrombin III), in complex with low molecular weight heparin
[2] = molecular target: Factor X (FX), active site titrated and DFP/EGR-cmk treated zymogen, P00742
[3] = molecular target: Factor VIIIa (FVIIIa), P00451
[4] = molecular target: Antithrombin III (plasma purified human AT-III) in complex with unfractionated heparin; test: ratio of K0.5 of variant to K0.5 of Catalyst Biosciences WT FIXa, AT-III/UFH inhibition assay

Chain of Factor VIIIa (FVIIIa), P00451 (P00451 other isoform, or with tags, fused parts or gaps): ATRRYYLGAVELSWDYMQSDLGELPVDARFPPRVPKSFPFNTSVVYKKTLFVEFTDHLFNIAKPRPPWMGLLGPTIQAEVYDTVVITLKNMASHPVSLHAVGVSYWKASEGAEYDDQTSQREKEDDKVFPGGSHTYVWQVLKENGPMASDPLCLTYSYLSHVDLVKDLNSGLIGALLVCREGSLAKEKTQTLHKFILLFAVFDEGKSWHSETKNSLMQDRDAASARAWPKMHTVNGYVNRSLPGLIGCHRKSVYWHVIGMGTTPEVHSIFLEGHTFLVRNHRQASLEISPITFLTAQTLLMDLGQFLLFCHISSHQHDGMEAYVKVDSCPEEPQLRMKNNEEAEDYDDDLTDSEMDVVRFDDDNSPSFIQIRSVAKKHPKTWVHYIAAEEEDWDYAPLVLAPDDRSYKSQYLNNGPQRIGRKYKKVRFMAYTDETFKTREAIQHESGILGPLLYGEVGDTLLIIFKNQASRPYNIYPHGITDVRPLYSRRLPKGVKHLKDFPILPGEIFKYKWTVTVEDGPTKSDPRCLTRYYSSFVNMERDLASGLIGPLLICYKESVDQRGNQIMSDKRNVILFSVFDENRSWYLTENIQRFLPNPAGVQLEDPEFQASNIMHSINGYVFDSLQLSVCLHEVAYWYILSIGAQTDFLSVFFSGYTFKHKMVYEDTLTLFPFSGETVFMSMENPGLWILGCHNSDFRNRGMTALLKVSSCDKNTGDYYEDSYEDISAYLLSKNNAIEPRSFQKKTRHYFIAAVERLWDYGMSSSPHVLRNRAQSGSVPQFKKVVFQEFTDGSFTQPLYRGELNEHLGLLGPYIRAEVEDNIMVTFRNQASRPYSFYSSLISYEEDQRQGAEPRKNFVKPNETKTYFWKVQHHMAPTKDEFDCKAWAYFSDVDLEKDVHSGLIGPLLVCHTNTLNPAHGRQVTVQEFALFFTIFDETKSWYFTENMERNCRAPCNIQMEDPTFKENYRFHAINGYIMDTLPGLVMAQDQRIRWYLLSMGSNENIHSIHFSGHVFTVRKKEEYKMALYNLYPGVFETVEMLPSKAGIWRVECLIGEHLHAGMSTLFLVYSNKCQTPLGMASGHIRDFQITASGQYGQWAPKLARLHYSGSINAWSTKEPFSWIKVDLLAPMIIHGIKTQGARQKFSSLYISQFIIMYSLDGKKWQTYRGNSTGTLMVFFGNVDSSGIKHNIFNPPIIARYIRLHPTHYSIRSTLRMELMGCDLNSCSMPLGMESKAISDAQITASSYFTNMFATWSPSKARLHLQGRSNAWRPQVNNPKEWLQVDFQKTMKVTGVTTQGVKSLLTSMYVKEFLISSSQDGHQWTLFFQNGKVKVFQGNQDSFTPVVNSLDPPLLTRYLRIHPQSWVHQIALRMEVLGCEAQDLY
Chain of Factor X (FX), active site titrated and DFP/EGR-cmk treated zymogen, P00742 (P00742 whole entry, looked up): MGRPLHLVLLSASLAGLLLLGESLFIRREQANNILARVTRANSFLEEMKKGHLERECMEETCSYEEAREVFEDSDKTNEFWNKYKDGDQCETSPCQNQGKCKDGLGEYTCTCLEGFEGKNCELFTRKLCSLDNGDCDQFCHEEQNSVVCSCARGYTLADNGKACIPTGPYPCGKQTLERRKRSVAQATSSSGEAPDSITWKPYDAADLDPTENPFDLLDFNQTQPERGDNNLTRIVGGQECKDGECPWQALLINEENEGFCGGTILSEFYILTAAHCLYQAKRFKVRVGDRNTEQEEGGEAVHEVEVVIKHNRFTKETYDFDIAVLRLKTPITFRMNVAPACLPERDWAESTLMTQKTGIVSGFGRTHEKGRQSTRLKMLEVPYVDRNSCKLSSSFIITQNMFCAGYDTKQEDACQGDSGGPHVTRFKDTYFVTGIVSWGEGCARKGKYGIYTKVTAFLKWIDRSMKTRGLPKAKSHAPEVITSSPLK
Chain of Factor X (FX), P00742 (P00742 whole entry, looked up): as above
Chain of Factor X, P00742 (P00742 whole entry, looked up): as above

B1: FIXa-K293A/R338A/R403A (protein)
chain 1: not shown
chain 2: not shown
**Q.** Which results are given for B1?
**A.** KM (Factor X (FX), P00742): 0.0654 µM; KM of FX activation by FIXa in the Xase complex (FVIIIa, PC/PS vesicles, Ca2+); fluorogenic Spectrafluor FXa assay (Factor X, P00742): 0.0654 µM; K0.5-mut/K0.5-wt (against Catalyst Biosciences WT FIXa), AT-III/LMWH [1]: 16.9 fold

B2: FIXa-R318Y/R338E/E410N (protein)
chain 1: not shown
chain 2: not shown
**Q.** For B2, which “catalytic activity (kcat/KM for activation of FX)” value (from here on “catalytic activity”) [2] is on record?
**A.** displayed some of the greatest increases in catalytic activity

B3: FIXa-K247N/N249S/R318Y/R338E/T343R/R403E/E410N (protein)
chain 1: not shown
chain 2: not shown
**Q.** How did the “catalytic activity” value [2] turn out when B3 was run?
**A.** improved activity when combined with other mutations

**Q.** And the kcat/KM (Factor X, P00742)?
**A.** 3.8e+08 M⁻¹ s⁻¹

B4: FIXa-K293E/R338E/R403E (protein)
chain 1: not shown
chain 2: not shown
**Q.** Which KM (Factor X (FX), P00742) does the source give for B4 here?
**A.** 0.05 µM

**Q.** What about the KM of FX activation by FIXa in the Xase complex (FVIIIa, PC/PS vesicles, Ca2+); fluorogenic Spectrafluor FXa assay (Factor X, P00742) of the same protein?
**A.** 0.05 µM

**Q.** What about the K0.5-mut/K0.5-wt (against Catalyst Biosciences WT FIXa), AT-III/LMWH [1] of the same protein?
**A.** 14.2 fold

B5: FIXa-R318Y/R338E/T343R/E410N (protein)
chain 1: not shown
chain 2: not shown
**Q.** Which results are given for B5?
**A.** KM (Factor X (FX), P00742): 0.0164 µM; catalytic activity (kcat/KM for activation of FX) [2]: displayed some of the greatest increases in catalytic activity; kcat/KM (Factor X, P00742): 3.4e+08 M⁻¹ s⁻¹

B6: FIXa-R318Y/R338E/T343R (activated CB 2679d, FIX of SEQ ID NO:394) (protein)
chain 1: not shown
chain 2: not shown
**Q.** With B6 as the protein, how does the “catalytic efficiency for the activation of FX” value [2] read?
**A.** approximately 3-fold enhanced catalytic efficiency for the activation of FX

B7: FIX of SEQ ID NO:394, with the replacements R318Y/R338E/T343R (activated form, FIXa) (protein)
chain 1: not shown
chain 2: not shown
**Q.** Which results are given for B7?
**A.** FIX activity (mean) at 5 ng/mL FVIIIa, Test 1 [3]: 278; FIX activity (mean) at 10 ng/mL FVIIIa, Test 2 [3]: 479; FIX activity (mean) at 15 ng/mL FVIIIa, Test 3 [3]: 622; Fold increase after FVIIIa addition (5 ng/mL), Test 1 [3]: 225 fold; Fold increase after FVIIIa addition (10 ng/mL), Test 2 [3]: 384 fold; Fold increase after FVIIIa addition (15 ng/mL), Test 3 [3]: 486 fold; Ratio (CB2679d vs BeneFIX) of FIX activity at 5 ng/mL FVIIIa [3]: 2; Ratio (CB2679d vs BeneFIX) of FIX activity at 10 ng/mL FVIIIa [3]: 2; Ratio (CB2679d vs BeneFIX) of FIX activity at 15 ng/mL FVIIIa [3]: 2; Cofactor-Dependent Indirect kcat/KM (M-1s-1), FX activation (Factor X (FX), P00742): 1.2e+08 M⁻¹ s⁻¹; Fold Increase over BeneFIX FIX (kcat/KM, FX activation) (Factor X (FX), P00742): 2.8 fold; Pro-coagulant Activity, Fold Change (in vitro) (Factor X (FX), P00742): 2.8 fold

B8: FIXa-K228N/K247N/N249S (protein)
chain 1: not shown
chain 2: not shown
**Q.** How did the “% of WT kcat/KM (against Catalyst Biosciences WT FIXa)” value (Factor X (FX), P00742) turn out when B8 was run?
**A.** 83%

**Q.** What about the kcat/KM for activation of FX by FIXa in the Xase complex (FVIIIa, PC/PS vesicles, Ca2+), fluorogenic Spectrafluor FXa read-out (Factor X (FX), P00742) of the same protein?
**A.** 3.8e+07 M⁻¹ s⁻¹

**Q.** And the “catalytic activity” value [2]?
**A.** demonstrated close to wild-type activity

B9: FIXa variant R318Y/R338E/E410N/T412V (protein)
chain 1: not shown
chain 2: not shown
**Q.** With B9 as the protein, how does the K0.5-mut/K0.5-wt [4] read?
**A.** > 517

B10: FIXa-K247N/N249S/R338E/T343R/R403E (protein)
chain 1: not shown
chain 2: not shown
**Q.** B10 was tested. Which kcat (Factor X (FX), P00742) did it give?
**A.** 14.6 s⁻¹

**Q.** And the “catalytic activity” value [2]?
**A.** improved activity when combined with other mutations

**Q.** What about the KM (Factor X, P00742) of the same protein?
**A.** 0.0263 µM
